Measurements: patent US20180148504A1

Experiments:
[1] = target: recombinant purified FRα (ECL assay calibrator) (human) (UniProt P15328); assay: ECL sandwich competition; competitors 9F3 capture / 24F12 detection; FRα standard STD04; MORAb-003 10 µg/mL
[2] = target: endogenous folate receptor alpha in human serum and plasma samples (human) (UniProt P15328); assay: ECL sandwich capture 19D4.B7 / detection 24H8.D3; serum incubated overnight with 10 µg/mL MORAb-003
[3] = target: endogenous folate receptor alpha in human serum and plasma samples (human) (UniProt P15328); assay: ECL sandwich capture 19D4.B7 / detection 24H8.F3; serum incubated overnight with 10 µg/mL MORAb-003
[4] = target: endogenous folate receptor alpha in human serum and plasma samples (human) (UniProt P15328); assay: ECL sandwich capture 24H8.F3 / detection 19D4.B7; serum incubated overnight with 10 µg/mL MORAb-003
[5] = target: recombinant purified FRα (ECL assay calibrator) (human) (UniProt P15328); assay: ECL sandwich capture 19D2.G9 / detection 6A2.G7; calibrator incubated overnight with 10 µg/mL MORAb-003
[6] = target: recombinant purified FRα (ECL assay calibrator) (human) (UniProt P15328); assay: ECL sandwich capture 6A2.G7 / detection 2F11.F8; calibrator incubated overnight with 10 µg/mL MORAb-003
[7] = target: endogenous folate receptor alpha in human serum and plasma samples (human) (UniProt P15328); assay: ECL sandwich capture 1A8.G11.E7 / detection 19D4.B7; serum incubated overnight with 10 µg/mL MORAb-003
[8] = target: endogenous folate receptor alpha in human serum and plasma samples (human) (UniProt P15328); assay: ECL sandwich competition; competitors 24H8.D3 capture / 19D4.B7 detection; serum of sample #DLSO-015; MORAb-003 100 µg/mL
[9] = target: recombinant purified FRα (ECL assay calibrator) (human) (UniProt P15328); assay: ECL sandwich capture 19D4.B7 / detection 24H8.F3; calibrator incubated overnight with 10 µg/mL MORAb-003
[10] = target: recombinant purified FRα (ECL assay calibrator) (human) (UniProt P15328); assay: ECL sandwich capture 19D4.B7 / detection 5C12.H8; calibrator incubated overnight with 10 µg/mL MORAb-003
[11] = target: recombinant purified FRα (ECL assay calibrator) (human) (UniProt P15328); assay: ECL sandwich capture 2F11.F8 / detection 19D4.B7; calibrator incubated overnight with 10 µg/mL MORAb-003
[12] = target: endogenous folate receptor alpha in human serum and plasma samples (human) (UniProt P15328); assay: ECL sandwich competition; competitors 24H8.D3 capture / 19D4.B7 detection; plasma of sample #DLSO-015; MORAb-003 100 µg/mL
[13] = target: recombinant purified FRα (ECL assay calibrator) (human) (UniProt P15328); assay: ECL sandwich capture 1A8.G11.E7 / detection 6A2.G7; calibrator incubated overnight with 10 µg/mL MORAb-003
[14] = target: recombinant purified FRα (ECL assay calibrator) (human) (UniProt P15328); assay: ECL sandwich capture 6A2.G7 / detection 1A8.G11.E7; calibrator incubated overnight with 10 µg/mL MORAb-003
[15] = target: recombinant purified FRα (ECL assay calibrator) (human) (UniProt P15328); assay: ECL sandwich capture 19D4.B7 / detection 1D2.G8.G10; calibrator incubated overnight with 10 µg/mL MORAb-003
[16] = target: recombinant purified FRα (ECL assay calibrator) (human) (UniProt P15328); assay: ECL sandwich capture 1D2.G8.G10 / detection 19D4.B7; calibrator incubated overnight with 10 µg/mL MORAb-003
[17] = target: recombinant purified FRα (ECL assay calibrator) (human) (UniProt P15328); assay: ECL sandwich capture 19D4.B7 / detection 1A8.G11.E7; calibrator incubated overnight with 10 µg/mL MORAb-003
[18] = target: recombinant purified FRα (ECL assay calibrator) (human) (UniProt P15328); assay: ECL sandwich capture 30G6.G6.G4.E9 / detection 6A2.G7; calibrator incubated overnight with 10 µg/mL MORAb-003
[19] = target: recombinant purified FRα (ECL assay calibrator) (human) (UniProt P15328); assay: ECL sandwich capture 30G6.G6.G4.E9 / detection 19D2.G9; calibrator incubated overnight with 10 µg/mL MORAb-003
[20] = target: recombinant purified FRα (ECL assay calibrator) (human) (UniProt P15328); assay: ECL sandwich capture 30G6.G6.G4.E9 / detection 24H8.D3; calibrator incubated overnight with 10 µg/mL MORAb-003
[21] = target: recombinant purified FRα (ECL assay calibrator) (human) (UniProt P15328); assay: ECL sandwich capture 30G6.G6.G4.E9 / detection 24H8.F3; calibrator incubated overnight with 10 µg/mL MORAb-003
[22] = target: recombinant purified FRα (ECL assay calibrator) (human) (UniProt P15328); assay: ECL sandwich capture 1C6.E12.G8 / detection 30G6.G6.G4.E9; calibrator incubated overnight with 10 µg/mL MORAb-003

Sequence of recombinant purified FRα (ECL assay calibrator) (human) (P15328 25-234 limits assumed): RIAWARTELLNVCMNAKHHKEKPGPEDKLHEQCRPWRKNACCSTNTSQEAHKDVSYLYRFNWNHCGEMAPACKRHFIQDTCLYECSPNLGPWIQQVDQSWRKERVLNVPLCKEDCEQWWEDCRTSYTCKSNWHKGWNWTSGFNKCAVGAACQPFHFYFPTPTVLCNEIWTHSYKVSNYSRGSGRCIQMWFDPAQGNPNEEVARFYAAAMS
Sequence of endogenous folate receptor alpha in human serum and plasma samples (human) (P15328 25-234 limits assumed, form in doubt): as the sequence (P15328 25-234 limits assumed) above

% of signal without MORAb-003 (MORAb-003 interference) [1]: 73%
Drug suppression of serum [2]: 4.49%
Drug suppression of serum [3]: -10.6%
Drug suppression of serum [4]: -13%
Drug Suppression of Cal Signal at 500 pg/mL [5]: -4%
Drug Suppression of Cal Signal at 500 pg/mL [6]: -4%
Drug suppression of serum [7]: -4.78%
percent inhibition (sample #DLSO-015, serum) [8]: 21%
Drug Suppression of Cal Signal at 500 pg/mL [9]: -14%
Drug Suppression of Cal Signal at 500 pg/mL [10]: -10%
Drug Suppression of Cal Signal at 500 pg/mL [11]: -2%
percent inhibition (sample #DLSO-015, plasma) [12]: 10%
Drug Suppression of Cal Signal at 500 pg/mL [13]: 16%
Drug Suppression of Cal Signal at 500 pg/mL [14]: 2%
Drug Suppression of Cal Signal at 500 pg/mL [15]: 2%
Drug Suppression of Cal Signal at 500 pg/mL [16]: -12%
Drug Suppression of Cal Signal at 500 pg/mL [17]: -2%
Drug Suppression of Cal Signal at 500 pg/mL [18]: -5%
Drug Suppression of Cal Signal at 500 pg/mL [19]: -5%
Drug Suppression of Cal Signal at 500 pg/mL [20]: -2%
Drug Suppression of Cal Signal at 500 pg/mL [21]: -8%
Drug Suppression of Cal Signal at 500 pg/mL [22]: -9%
B1: farletuzumab (MORAb-003) (antibody, part only; not given: Constant regions, V domains shown, not shown: another chain or arm of the molecule)
VH: EVQLVESGGGVVQPGRSLRLSCSASGFTFSGYGLSWVRQAPGKGLEWVAMISSGGSYTYYADSVKGRFAISRDNAKNTLFLQMDSLRPEDTGVYFCARHGDDPAWFAYWGQGTPVTVSS
VL: DIQLTQSPSSLSASVGDRVTITCSVSSSISSNNLHWYQQKPGKAPKPWIYGTSNLASGVPSRFSGSGSGTDYTFTISSLQPEDIATYYCQQWSSYPYMYTFGQGTKVEIK
